How the values were obtained:
[1] = molecular target: the molecule itself; experiment: SEC; Superdex 75 (10/300GL), 20 mM citric acid pH 5.0, 150 mM NaCl, 2 mM β-mercaptoethanol; single peak at 26 kDa
[2] = molecular target: T1, MtHigA3 (Mycobacterium tuberculosis H37Rv, UniProt O53333 1-109); experiment: EMSA; 0.1-0.6 uM protein, 0.01 uM DNA; conditions: protein: recombinant; tags: C-terminal […]; chain copies: 2; blunt
T1 sequence: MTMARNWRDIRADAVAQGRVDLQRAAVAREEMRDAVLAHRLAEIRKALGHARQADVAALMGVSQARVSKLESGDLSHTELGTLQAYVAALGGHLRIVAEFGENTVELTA

Row | Binder | stoichiometry N [1] | binding result [2]
1 | M. tuberculosis HigA3 antitoxin (natural protein, also called MtHigA3) MTMARNWRDIRADAVAQGRVDLQRAAVAREEMRDAVLAHRLAEIRKALGHARQADVAALMGVSQARVSKLESGDLSHTELGTLQAYVAALGGHLRIVAEFGENTVELTA | 2 | 
2 | DNA1 (DNA-1, -35 box) (dsDNA) DNA 1: CCGACGATGACCGCGCAC DNA 2: GTGCGCGGTCATCGTCGG |  | no binding
3 | DNA4 (DNA-4, palindrome around -10 box) (dsDNA) DNA 1: AGATATAACCTAGAGGTTATACTG DNA 2: CAGTATAACCTCTAGGTTATATCT |  | no binding
